Data as given in paper PMC9812318, “A dimer between monomers and hexamers—Oligomeric variations in glucosamine-6-phosphate deaminase family” (PLOS ONE, 2023).

B1: Glucosamine-6-phosphate deaminase (NagB) from Haemophilus influenzae (enzyme)
chain: not shown
notes: Glucosamine-6-phosphate deaminase (NagB), Haemophilus influenzae; Made from a Gateway recombinant plasmid; also called HiNagB; Hi-NagB; source: E. coli BL21(DE3)*, purified (Ni-NTA, SEC)
B2: Glucosamine-6-phosphate deaminase (NagB) from Pasteurella multocida (enzyme)
chain: not shown
notes: Glucosamine-6-phosphate deaminase (NagB), Pasteurella multocida; Made from a Gateway recombinant plasmid; also called PmNagB; Pm-NagB; source: E. coli BL21(DE3)*, purified (Ni-NTA, SEC)

Columns and labels:
[1] = target: the molecule itself; assay: crystal structure; HiNagB crystals, P21, 12 monomers in the asymmetric unit, 3.0 Å; 2% Tacsimate pH 5.0, 0.1 M sodium citrate pH 5.6, 16% PEG 3350, 0.1 M strontium chloride, 18°C
[2] = target: the molecule itself; assay: crystal structure; PmNagB crystals, P21, 4 monomers in the asymmetric unit, 2.3 Å; 100 mM sodium cacodylate/HCl pH 6.5, 200 mM MgCl2, 20% PEG 1000, 18°C; analysis of crystal packing

Protein | stoichiometry N [1] | stoichiometry N [2]
B1 | 6 | 
B2 |  | 2
